Experimental findings from patent US20120225464A1, “Specific Arabinose Transporter of the Plant Arabidopsis Thaliana for the Construction of Pentose-Fermenting Yeasts” (priority 2011, published 2012) are described below.

Some results are limits rather than exact numbers.

Holding throughout (format): cell-based, S. cerevisiae
For one data set, the target named is T1, Stp2 (Arabidopsis thaliana, UniProt Q9LNV3).
T1 construct: The open reading frame (ORF) of AtStp2 was amplified and cloned behind the shortened strong HXT7 promoter; expressed in transfected cells; host or cells: S. cerevisiae strain MKY06 (all hexose transporters deleted), plasmid pTHStp2
T1 sequence (Q9LNV3 1-498): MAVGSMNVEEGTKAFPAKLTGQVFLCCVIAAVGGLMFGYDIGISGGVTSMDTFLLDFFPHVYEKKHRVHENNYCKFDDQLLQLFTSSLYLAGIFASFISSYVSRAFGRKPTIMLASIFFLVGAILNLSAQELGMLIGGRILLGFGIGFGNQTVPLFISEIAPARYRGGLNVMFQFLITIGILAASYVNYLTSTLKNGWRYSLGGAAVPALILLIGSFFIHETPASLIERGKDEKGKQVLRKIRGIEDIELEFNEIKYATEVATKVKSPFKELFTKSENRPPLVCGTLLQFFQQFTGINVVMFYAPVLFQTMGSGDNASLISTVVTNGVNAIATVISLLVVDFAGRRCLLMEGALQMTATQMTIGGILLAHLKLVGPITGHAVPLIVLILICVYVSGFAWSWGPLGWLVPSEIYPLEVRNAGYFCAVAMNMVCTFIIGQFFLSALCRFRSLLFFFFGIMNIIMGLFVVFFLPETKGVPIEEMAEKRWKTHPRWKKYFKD
Nature of the data set: Inhibition of Stp2-mediated L-arabinose uptake by added sugar. The note with it: addition of 10 mM of the sugar. The procedure:
(§1) The initial rates of sugar uptake were measured as follows: a 50-0 aliquot of a sugar solution containing (1-^3H)-labeled L-arabinose, (U-^14C) labeled O-glucose (American Radiolabeled Chemicals Inc.) or (1-^14C) labeled D-galactose (Amersham) was incubated at 30° C. and was mixed with 100 μl of yeast suspensions having the same temperature, resulting in final sugar concentrations of 10 mM L-arabinose, D-glucose and D-galactose. For determination of L-arabinose uptake kinetics 0.1, 1, 5, 10, and 50 mM L-arabinose were used. After different time intervals 10 ml of ice-cold 100 mM potassium phosphate buffer at pH 6.5 with 500 mM. D-glucose was added, and the suspension was immediately filtrated using Durapore® membrane filters (0.22 μm pore size, Millipore). The filter was washed two times with 10 ml of cold potassium phosphate buffer with 500 mM D-glucose. […] Rotiszint® eco plus (Roth) and the radioactivity measured in a scintillation counter. Uptake of radioactivity was nearly linear in time intervals up to 2 minutes. […] Dry weight was determined by filtering 10 ml of the culture through a pre-weighted nitrocellulose filter (0.45 μm pore size; Roth, Germany). […] KM and vmax values were calculated using the program GraphPad Prism 5.0.
(§2) For L-arabinose, uptake kinetics were determined by measuring L-arabinose uptake at various concentrations between 0.1 and 50 mM during 2-minute time intervals. […]

For another data set, the target named is T2, Gal2 (Saccharomyces cerevisiae, UniProt P13181).
T2 construct: expressed in transfected cells; host or cells: S. cerevisiae strain MKY06 (all hexose transporters incl. gal2 deleted)
T2 sequence (P13181 1-574): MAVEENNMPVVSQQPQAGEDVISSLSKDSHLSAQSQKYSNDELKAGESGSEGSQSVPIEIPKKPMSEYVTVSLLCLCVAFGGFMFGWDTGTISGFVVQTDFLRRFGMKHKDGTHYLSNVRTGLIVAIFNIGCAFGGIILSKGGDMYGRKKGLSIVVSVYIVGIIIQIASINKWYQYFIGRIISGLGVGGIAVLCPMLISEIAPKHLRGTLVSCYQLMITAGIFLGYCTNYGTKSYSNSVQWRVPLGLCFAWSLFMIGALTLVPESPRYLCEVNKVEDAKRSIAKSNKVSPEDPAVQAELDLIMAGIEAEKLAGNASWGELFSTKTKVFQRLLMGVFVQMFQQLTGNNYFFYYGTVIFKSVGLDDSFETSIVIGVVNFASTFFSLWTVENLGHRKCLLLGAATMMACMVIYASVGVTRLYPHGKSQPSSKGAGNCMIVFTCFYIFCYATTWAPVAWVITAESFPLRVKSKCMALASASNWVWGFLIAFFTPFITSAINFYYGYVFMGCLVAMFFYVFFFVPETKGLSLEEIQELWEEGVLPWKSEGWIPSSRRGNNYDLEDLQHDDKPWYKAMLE
Kind of data set: Inhibition of Gal2-mediated L-arabinose uptake by added sugar. The note with it: addition of 10 mM of the sugar. The procedure: as §1, §2

Another data set deals with strain MKY06-3P. Nature of the data set: Sugar consumption / fermentation analysis by HPLC in SC medium under aerobic conditions. The note with it: transporter overexpressed. The procedure:
(§3) Fermentation analysis of the MKY06-3P containing the plasmids p426-opt-AraT-S (A) or pTHSTp2 (B) in SC medium with 2% glucose under aerobic conditions. As controls the strain MKY06-3P was used containing the plasmids pHL125^re (positive) or p426HXT7-6HIS (negative). The strains with the various plasmids were adducted in SC medium with 2% glucose and inoculated with an OD600nm=1 in 50 ml SC medium. The incubation took place in 300 ml shaking flasks under aerobic conditions at 30° C. Samples were taken several times during the 120 hours to determine the sugar concentration via HPLC analysis.
as §3, with “arabinose” for “glucose”, “analysis. […]” for “analysis.”
The samples taken in the tests were centrifuged for 10 min at 3000 R/min, in order to pellet the yeast cells. […] The sugar concentrations were measured by means of BioLC (Dionex). […]

Data set [1] deals with D-glucose uptake, strain MKY06. Kind of data set: Initial rate of D-glucose uptake with radioactively labeled sugar in strain MKY06 overexpressing the transporter. The note with it: 10 mM D-glucose, 1 minute; empty-vector background subtracted. The procedure: Initial rates of sugar uptake of strain MKY06 expressing Stp2 (AtStp2) or Gal2 (ScGal2). Cells were grown on D-galactose or maltose (empty vector), harvested and incubated with the radioactively labeled sugars: 10 mM L-arabinose (A), 10 mM D-galactose (B) and 10 mM D-glucose (C) for 2 minutes (L-arabinose) or 1 minute (D-galactose, D-glucose). The background values determined with cells containing the empty vector were subtracted.
as §1, with “used.” for “used. After different time intervals 10 ml of ice-cold 100 mM potassium phosphate buffer at pH 6.5 with 500 mM. D-glucose was added, and the suspension was immediately filtrated using Durapore® membrane filters (0.22 μm pore size, Millipore). The filter was washed two times with 10 ml of cold potassium phosphate buffer with 500 mM D-glucose.”, “5.0. […]” for “5.0.”

The test system of data set [2] is L-arabinose uptake, strain MKY06. Kind of data set: L-arabinose uptake kinetics with radioactively labeled sugar in strain MKY06 overexpressing the transporter. The note with it: L-arabinose as the substrate; 0.1-50 mM, 2-minute intervals. The procedure: The initial rates of sugar uptake were measured as follows: a 50-0 aliquot of a sugar solution containing (1-^3H)-labeled L-arabinose, (U-^14C) labeled O-glucose (American Radiolabeled Chemicals Inc.) or (1-^14C) labeled D-galactose (Amersham) was incubated at 30° C. and was mixed with 100 μl of yeast suspensions having the same temperature, resulting in final sugar concentrations of 10 mM L-arabinose, D-glucose and D-galactose. For determination of L-arabinose uptake kinetics 0.1, 1, 5, 10, and 50 mM L-arabinose were used. After different time intervals 10 ml of ice-cold 100 mM potassium phosphate buffer at pH 6.5 with 500 mM. D-glucose was added, and the suspension was immediately filtrated using Durapore® membrane filters (0.22 μm pore size, Millipore). The filter was washed two times with 10 ml of cold potassium phosphate buffer with 500 mM D-glucose. Filters were transferred to 5 ml scintillation vials containing 4.5 ml. Rotiszint® eco plus (Roth) and the radioactivity measured in a scintillation counter. Uptake of radioactivity was nearly linear in time intervals up to 2 minutes. The results shown are average values for two to three independent experiments. Dry weight was determined by filtering 10 ml of the culture through a pre-weighted nitrocellulose filter (0.45 μm pore size; Roth, Germany). The filters were washed with demineralized water, dried in a microwave oven for 20 minutes at 140 W, and weighted again. KM and vmax values were calculated using the program GraphPad Prism 5.0.
For L-arabinose, uptake kinetics were determined by measuring L-arabinose uptake at various concentrations between 0.1 and 50 mM during 2-minute time intervals. While Gal2 turned out to transport L-arabinose with low affinity and high capacity, Stp2 mediated uptake of L-arabinose with low capacity but high affinity (Table 1).

As to `O=C[C@H](O)[C@@H](O)[C@H](O)[C@H](O)CO` [D-glucose], the “Inhibition of L-arabinose uptake (Stp2)” value at Stp2 was “nearly completely inhibited”. Besides, the “Inhibition of L-arabinose uptake (Gal2)” value on Gal2 is listed as “nearly completely inhibited”.
In the case of AraT, the “Glucose transport in the strain MKY06-3P” value in the data set with strain MKY06-3P is “small amounts of glucose”.
As for `O=C[C@H](O)[C@@H](O)[C@@H](O)[C@H](O)CO` [D-galactose], the “Inhibition of L-arabinose uptake (Stp2)” value at Stp2 is reported as “nearly completely inhibited”. The “Inhibition of L-arabinose uptake (Gal2)” value at Gal2 is given as “nearly completely inhibited”.

B1: Gal2: S. cerevisiae galactose permease Gal2, known to also transport L-arabinose (protein, UniProt P13181 1-574, looked up)
Galactose transporter: MAVEENNMPVVSQQPQAGEDVISSLSKDSHLSAQSQKYSNDELKAGESGSEGSQSVPIEIPKKPMSEYVTVSLLCLCVAFGGFMFGWDTGTISGFVVQTDFLRRFGMKHKDGTHYLSNVRTGLIVAIFNIGCAFGGIILSKGGDMYGRKKGLSIVVSVYIVGIIIQIASINKWYQYFIGRIISGLGVGGIAVLCPMLISEIAPKHLRGTLVSCYQLMITAGIFLGYCTNYGTKSYSNSVQWRVPLGLCFAWSLFMIGALTLVPESPRYLCEVNKVEDAKRSIAKSNKVSPEDPAVQAELDLIMAGIEAEKLAGNASWGELFSTKTKVFQRLLMGVFVQMFQQLTGNNYFFYYGTVIFKSVGLDDSFETSIVIGVVNFASTFFSLWTVENLGHRKCLLLGAATMMACMVIYASVGVTRLYPHGKSQPSSKGAGNCMIVFTCFYIFCYATTWAPVAWVITAESFPLRVKSKCMALASASNWVWGFLIAFFTPFITSAINFYYGYVFMGCLVAMFFYVFFFVPETKGLSLEEIQELWEEGVLPWKSEGWIPSSRRGNNYDLEDLQHDDKPWYKAMLE
With B1, the D-glucose uptake rate in data set [1] turned out to be 4.7 nmol/min/mg DM. In data set [2], the Km is 57 mM and the vmax is on record as 2.2 +/− 0.26 nmol/min/mg DM.

B2: Stp2: transporter Stp2 from Arabidopsis thaliana, a protein of 498 amino acids (SEQ ID NO. 1) (protein, listed as Arabidopsis thaliana)
chain: MAVGSMNVEEGTKAFPAKLTGQVFLCCVIAAVGGLMFGYDIGISGGVTSMDTFLLDFFPHVYEKKHRVHENNYCKFDDQLLQLFTSSLYLAGIFASFISSYVSRAFGRKPTIMLASIFFLVGAILNLSAQELGMLIGGRILLGFGIGFGNQTVPLFISEIAPARYRGGLNVMFQFLITIGILAASYVNYLTSTLKNGWRYSLGGAAVPALILLIGSFFIHETPASLIERGKDEKGKQVLRKIRGIEDIELEFNEIKYATEVATKVKSPFKELFTKSENRPPLVCGTLLQFFQQFTGINVVMFYAPVLFQTMGSGDNASLISTVVTNGVNAIATVISLLVVDFAGRRCLLMEGALQMTATQMTIGGILLAHLKLVGPITGHAVPLIVLILICVYVSGFAWSWGPLGWLVPSEIYPLEVRNAGYFCAVAMNMVCTFIIGQFFLSALCRFRSLLFFFFGIMNIIMGLFVVFFLPETKGVPIEEMAEKRWKTHPRWKKYFKD
On to B2, for which the D-glucose uptake rate in data set [1] is less than 0.01 nmol/min/mg DM. In data set [2], the Km came out at 4.5 mM and the vmax is on record as 0.6 +/− 0.08 nmol/min/mg DM.
